Test results taken from patent US20040052799.

Target: T1, N-succinyl-Ala-Ala-Pro-Phe-p-nitroanilide
T1 chain: AAPF

B1: Recombinant H. pylori peptidyl-prolyl cis-trans isomerase (ppiB), His-tagged (protein)
chain: FIAIIEHLNDKSLSQRFMMKPIKTYDIKEEELAKTAYATIKTNKGNITLELFYKDAPQAVSNFVTLAKEGFYNGLNFHRVIAGFVAQGGCPYGTGTGGPEHRIKCEVAHNPNKHQRGSISMAHAGRDTGGSQFFLCFVDLPHLDGEHTVFGKITSAESLSVLDKIKQGDIIESVVFSPSL
For B1, the kcat was “This corresponds to a kcat of 1.6 sec^-1”.
